Key:
[1] = target: SARS-CoV-2 RBD (SARS-CoV-2, UniProt P0DTC2); assay: ELISA
[2] = target: SARS-CoV RBD (SARS-CoV, UniProt P59594); assay: ELISA

Binder	EC50 [1]	EC50 [2]
C155 (antibody, V domains shown) VH: EVQLVESGGGLIQPGGSLRLSCAASGFIVSSNYMSWVRQAPGKGLEWVSVIYSGGSTFYADSVKGRFTISRDNSKNTLYLQMNSLRAEDTAVYYCARDFGEFYFDYWGQGTLVTVSS VL: EIVMTQSPATLSVSPGERATLSCRASQSVSSNLAWYQQKPGQAPRLLIYGASTRATAIPARFSGSGSGTEFTLTISSLQSEDFAVYYCQQYNNWPRTFGQGTKVEIK	3.3 ng/mL	> 1000 ng/mL
C017 (antibody, V domains shown) VH: EVQLVESGGGLVQPGRSLRLSCAASGFTFDDYAMHWVRQAPGKGLEWVSGISWNSGTIGYADSVKGRFTISRDNAKNSLYLQMNSLRAEDTAFYYCAKAGVRGIAAAGPDLNFDHWGQGTLVTVSS VL: EIVLTQSPATLSLSPGERATLSCRASQSVSSYLAWYQQKPGQAPRLLIYDASNRATGIPARFSGSGSGTDFTLTISSLEPEDFAVYYCQQRITFGQGTRLEIK	1.63 ng/mL	> 1000 ng/mL
C140 (antibody, V domains shown) VH: EVQLVESGGGLVQPGGSLRLSCAASGVTVSSNYMSWVRQAPGKGLEWVSLIYSGGSTFYADSVKGRFTISRDNSENTLYLQMNTLRAEDTAVYYCARDLYYYGMDVWGQGTTVTVSS VL: DIQLTQSPSFLSASVGDRVTITCRASQGISSYLAWYQQKPGKAPKLLIYAASTLQSGVPSRFSGSGSGTEFTLTISSLQPEDFATYYCQQLNSYSYTFGQGTKLEIK	2.19 ng/mL	> 1000 ng/mL
C151 (antibody, V domains shown) VH: EVQLVESGGGLVKPGGSLRLSCAASGFTFSSYNMNWVRQAPGKGLEWVSCISSSSSYIYYADSVKGRFTISRDNAKNSLYLQMNSLRAEDTAVYYCARERGYDGGKTPPFLGGQGTLVTVSS VL: NFMLTQPHSVSESPGKTVTISCTGSSGSIASNYVQWYQQRPGSAPTTVIYEDNQRPSGVPDRFSGSIDSSSNSASLTISGLKTEDEADYYCQSYDSSNYWVFGGGTKLTVL	4.3 ng/mL	> 1000 ng/mL
C016 (antibody, V domains shown) VH: EVQLVESGGGVVQPGRSLRLSCAASGFTFSRYGMHWVRQAPGKGLEWVAVISYDGSNKYYADSVKGRFTISRDNSKNTLYLQMNSLRAEDTAVYYCAKVTAPYCSGGSCYGGNFDYWGQGTLVTVSS VL: not shown	7.41 ng/mL	> 1000 ng/mL
C118 (antibody, V domains shown) VH: QVQLVESGGGVVQPGRSLRLSCAASGFTFSNYAMHWVRQAPGKGLEWVAVISYDGSNKYYADSVKGRFTISRDNSKNTLYLQMNSLRAEDTAIYYCASGYTGYDYFVRGDYYGLDVWGQGTTVTVSS VL: QPVLTQSPSASASLGASVKLTCTLSSGHSSYAIAWHQQQPEKGPRYLMKLNTDGSHSKGDGIPDRFSGSSSGAERYLTISSLQSEDEADYYCQTWGTGILVFGGGTKLTVL	3.45 ng/mL	3.82 ng/mL
C214 (antibody, V domains shown) VH: QVQLVESGGGVVQPGRSLRLSCAASGFTFSSYGMHWVRQAPGKGLEWVAAIWYDGSNKHYADSVKGRFTISRDNSKNTLYLQMNSLRAEDTAVYYCARDVGRVTTWFDPWGQGTLVTVSS VL: not shown	5.75 ng/mL	> 1000 ng/mL
C208 (antibody, V domains shown) VH: EVQLVQSGAEVKKPGESLKISCKGSGYSFTSYWIGWVRQMPGKGLEWMGIIYPGDSDTRYSPSFQGQVTISADKSISTAYLKWSSLKASDSAMYYCARGPNLQNWFDPWGQGTLVTVSS VL: EIVLTQSPGTLSLSPGERATLSCRASQSVSGSYLAWYQQRPGQAPRLLIYGASSRATGIPDRFSGSGSGTDFTLTISRLEPEDFAVYYCQQYGSSLTFGGGTKVEIK	> 1000 ng/mL	> 1000 ng/mL
C139 (antibody, V domains shown) VH: EVQLVESGGGVVQPGRSLRLSCAASGFTFSSYAMHWVRQAPGKGLEWVAVISYDGSNKYSADSVKGRFTISRDNSKNTLYLQMNSLRAEDTAVYYCAKGGAYSYYYYMDVWGKGTTVTVSS VL: not shown	1.89 ng/mL	> 1000 ng/mL
C120 (antibody, V domains shown) VH: EVQLVESGGGLIQPGGSLRLSCAASGFTVSSNYMTWVRQAPGKGLEWVSLIYPGGSTYYADSVKGRFTISRDNSKNTLYLQMNSLRAEDTAVYYCAREGMGMAAAGTWGQGTLVTVSS VL: AIRMTQSPSSLSASVGDTVTITCQASQDISKYLNWYQQKPGKAPKLLIYDASNLETGVPSRFSGSGSGTDFTFTISSLQPEDIATYYCQQYDNLPQTFGGGTKVEIK	1.41 ng/mL	> 1000 ng/mL
C004 (antibody, V domains shown) VH: not shown VL: AIRMTQSPSSLSASVGDRVTITCQASQDISNYLNWYQQKPGKAPKLLIYDASNLETGVPSRFSGSGSGTDFTFTISSLQPEDIATYYCQQYDNLPITFGQGTRLEIK	2.39 ng/mL	> 1000 ng/mL
C204 (antibody, V domains shown) VH: EVQLLESGGGLEQPGGSLRLSCAASGFTFSTYAMSWVRQAPGKGLEWVSAISGSGAGTFYADSVKGRFTISRDNSKNTLYLQMNSLRAEDTAVYYCARESDCGSTSCYQVGWFDPWGQGTLVTVSS VL: not shown	3.73 ng/mL	9.41 ng/mL
C114 (antibody, V domains shown) VH: QVQLVESGGGLIQPGGSLKLSCVVSGFTVSKNYISWVRQAPGKGLEWVSVIFAGGSTFYADSVKGRFAISRDNSNNTLFLQMNSLRVEDTAIYYCARGDGELFFDQWGQGTLVTVSS VL: QSVLTQPPSVSGAPGQRVTISCTGTSSNIGAGYDVHWYQQLPGRAPKVLISGNNIRPSEVPDRFSGSRSGTSASLAITSLQPEDEAQYYCQSYDSSLYAVFGGGTKLTVL	9.51 ng/mL	> 1000 ng/mL
C148 (antibody, V domains shown) VH: EVQLVESGGGLVQPGGSQRLSCAASGFTVSSNYMSWIRQAPGKGLEWVSVIYSGGSAYYVDSVKGRFTISRDNSKNTLYLQMNSLRPEDTAVYYCARIANYMDVWGKGTTVTVSS VL: EIVMTQSPATLSVSPGERATLSCRASQSVSSHLAWYQQKPGQAPRLLIYGASTRATGIPTRFSGSGSGTEFTLTISSLQSEDFAVYYCQQYNNWPPLTFGGGTKVEIK	64.7 ng/mL	> 1000 ng/mL
C013 (antibody, V domains shown) VH: QVQLVQSGAEVKKPGSSVKVSCKASGGTFSSYAISWVRQAPGQGLEWMGGIIPIFGTANYAQKFQGRVTITADESTSTAYMELSSLRSEDTAVYYCARGNRLLYCSSTSCYLDAVRQGYYYYYYMDVWGKGTTVTVSS VL: EIVLTQSPATLSLSPGERATLSCRASQSVSSYLAWYQQKPGQAPRLLIYDASNRATGIPARFSGSGSGTDFTLTISSLEPEDFAVYYCQQRSNWPLTFGGGTKVEIK	2.59 ng/mL	> 1000 ng/mL
C128 (antibody, V domains shown) VH: EVQLLESGGGLVQPGGSLRLSCAASGFTFSTYAMSWVRQAPGKGLEWVSTITGSGRDTYYADSVKGRFTISRDNSKNTLFLQLNSLRAEDAAVYSCANHPLASGDDYYHYYMDVWGKGTTVTVSS VL: EIVLTQSPGTLSLSPGERATLSCRASQSVNSRQLAWYQQKPGQAPRLLIYGASSRATGIPERFSGSGSGTDFTLTISRLESEDFAVYHCQQYGSSRALTFGGGTKVEIK	1.95 ng/mL	> 1000 ng/mL
C134 (antibody, V domains shown) VH: EVQLLESGGGLVQPGGSLRLSCAASGFTFSNYAMSWVRQAPGKGLEWVSAISGSDGSTYYAGSVKGRFTISRDNSKNTLYLQMNSLRAEDTAVYYCAKDPLITGPTYQYFHYWGQGTLVTVSS VL: SYELTQPPSVSVAPGKTARITCGGNNIGSKSVHWYQQKPGQAPVLVIYYDSDRPSGIPERFSGSNSGNTATLTISRVEAGDEAEYHCQVWDSSSDRPGVVFGGGTKLTVL	1.57 ng/mL	> 1000 ng/mL

Reference: US11634477 (dated 2023)
